The source of these data is publication PMC5959238 (Genes & Development, 2018).

Non-standard residues stand in square brackets, D forms with d. No end group written: not given here. Tyr(3-I) = N[C@@H](Cc1ccc(O)c(I)c1)C(=O)O

For assay [1], the target named is T1, HIS-TEV-tagged CBP80(Δ2–23) (human, UniProt Q09161 24-790, Δ2–23).
T1 sequence: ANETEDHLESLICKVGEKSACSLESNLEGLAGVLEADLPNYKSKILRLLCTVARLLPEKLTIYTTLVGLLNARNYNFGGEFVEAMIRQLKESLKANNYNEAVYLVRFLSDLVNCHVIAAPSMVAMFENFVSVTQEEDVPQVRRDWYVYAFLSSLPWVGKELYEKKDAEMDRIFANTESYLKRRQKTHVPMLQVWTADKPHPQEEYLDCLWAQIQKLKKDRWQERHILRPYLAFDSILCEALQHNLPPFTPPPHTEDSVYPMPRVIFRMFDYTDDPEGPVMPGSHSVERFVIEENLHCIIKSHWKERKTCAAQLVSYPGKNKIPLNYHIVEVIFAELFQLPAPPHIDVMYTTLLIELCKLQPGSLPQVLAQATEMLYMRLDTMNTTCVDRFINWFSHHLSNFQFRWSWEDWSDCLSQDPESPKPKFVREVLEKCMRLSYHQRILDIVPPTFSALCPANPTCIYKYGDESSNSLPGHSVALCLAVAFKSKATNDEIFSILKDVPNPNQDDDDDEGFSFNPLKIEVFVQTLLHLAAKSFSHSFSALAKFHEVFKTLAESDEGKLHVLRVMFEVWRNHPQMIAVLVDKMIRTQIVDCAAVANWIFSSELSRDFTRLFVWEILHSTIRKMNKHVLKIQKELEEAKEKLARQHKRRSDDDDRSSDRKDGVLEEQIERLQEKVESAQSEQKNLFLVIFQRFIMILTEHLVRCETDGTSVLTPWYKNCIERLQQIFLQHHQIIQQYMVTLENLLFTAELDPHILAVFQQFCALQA
As to the kind of experiment: crystal structure.

Assay [2] concerns the target T2, cap-binding complex (CBC): preformed complex of CBP80–CBP20 (human, UniProt Q09161;P52298, Δ2–23).
T2 sequence 1: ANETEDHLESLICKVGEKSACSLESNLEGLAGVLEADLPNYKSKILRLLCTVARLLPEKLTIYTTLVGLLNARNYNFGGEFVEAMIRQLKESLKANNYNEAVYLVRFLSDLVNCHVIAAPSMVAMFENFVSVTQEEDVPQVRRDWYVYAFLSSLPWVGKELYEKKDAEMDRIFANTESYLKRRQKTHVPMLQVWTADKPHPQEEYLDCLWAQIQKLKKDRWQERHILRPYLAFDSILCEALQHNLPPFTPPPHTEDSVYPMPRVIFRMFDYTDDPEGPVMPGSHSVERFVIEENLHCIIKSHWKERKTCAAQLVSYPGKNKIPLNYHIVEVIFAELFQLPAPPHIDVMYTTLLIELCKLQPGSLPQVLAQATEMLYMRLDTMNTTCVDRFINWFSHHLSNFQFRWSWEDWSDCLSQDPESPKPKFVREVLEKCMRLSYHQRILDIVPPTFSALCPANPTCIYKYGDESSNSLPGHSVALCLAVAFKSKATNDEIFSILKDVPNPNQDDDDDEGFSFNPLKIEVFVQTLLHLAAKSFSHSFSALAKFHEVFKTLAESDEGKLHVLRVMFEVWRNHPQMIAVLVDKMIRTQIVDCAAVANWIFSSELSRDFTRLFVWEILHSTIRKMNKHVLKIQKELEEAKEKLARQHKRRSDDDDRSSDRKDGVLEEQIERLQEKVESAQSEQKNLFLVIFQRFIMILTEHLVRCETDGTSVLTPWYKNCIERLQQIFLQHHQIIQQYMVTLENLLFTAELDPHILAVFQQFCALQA
T2 sequence 2: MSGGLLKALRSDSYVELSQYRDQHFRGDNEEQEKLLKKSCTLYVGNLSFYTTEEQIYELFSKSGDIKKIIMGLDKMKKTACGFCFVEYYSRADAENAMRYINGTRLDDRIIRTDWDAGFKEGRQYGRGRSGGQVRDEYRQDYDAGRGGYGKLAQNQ
Description: fluorescence polarisation. On the technique in general: Polarisation of emitted light reports the rotation of a fluorescent probe.

In assay [3] the target is T1, HIS-TEV-tagged CBP80(Δ2–23). Description: pull-down.
The target of assay [4] is T2, cap-binding complex (CBC): preformed …. As to the kind of experiment: crystal structure.

B1: CBP20 (natural protein)
chain: MSGGLLKALRSDSYVELSQYRDQHFRGDNEEQEKLLKKSCTLYVGNLSFYTTEEQIYELFSKSGDIKKIIMGLDKMKKTACGFCFVEYYSRADAENAMRYINGTRLDDRIIRTDWDAGFKEGRQYGRGRSGGQVRDEYRQDYDAGRGGYGKLAQNQ
B1: the binding result in assay [1] was “binds”.

For the molecule MDFDSLLKEAQQS [PGC-1β peptide, amino acids 1009–1021], the binding result in assay [2] is given as “binds”.

Turning to MDFDSLLKEGQQS [PGC-1β-10G], in assay [2], the binding result is “binds”.

Consider PASGKSKYEAMDFDSLLKEAQQSLH (domain or fragment) [PGC-1β amino acids 999–1023], for which the binding result in assay [3] is reported as “binds”.

Turning to Ac-SEEALPASGKSK[Tyr(3-I)]EAMDFDSLLKEAQQSLH (not fully specified) [synthetic PGC-1β peptide spanning amino acids 994–1023], the binding result in assay [4] and in assay [1] was “binds” throughout.
